Data on 19 molecules can be found in patent publication US20170157165, “APTAMER FOR FGF2 AND USE THEREOF” (RIBOMIC INC., published 2017).

The labels stand for the following.
B1: aptamer ID 3(8) (ssRNA)
RNA: GGGAUACUAGGGCAUUAAUGUUACCAGUGUAGUCCC
modifications: all C and U 2'-F; 2'-OMe at G1,G2,G3,A4,A9,G10,G11,A14,A17,A18,G20,A23,A26; other purines 2'-OH; 3' idT
B2: aptamer ID 3(13) (ssRNA)
RNA: B1 RNA
modifications: 2'-OMe at G1,G2,G3,A4,A9,G10,G11,A14,U15,U16,A17,A18,U19,G20,A23,A26; other C and U 2'-F; other purines 2'-OH
B3: aptamer ID 3(35) (ssRNA)
RNA: B1 RNA
modifications: 2'-F at U8,G12,U16,U21,G27,U28,U30; 2'-OH at G29; all others 2'-OMe; 3' idT
B4: aptamer ID 3(12) (ssRNA)
RNA: B1 RNA
modifications: 2'-OMe at G1,G2,G3,A4,A9,G10,G11,A14,A17,A18,G20,A23,A26,U33,C34,C35,C36; other C and U 2'-F; other purines 2'-OH; 3' idT
B5: aptamer ID 3(33) (ssRNA)
RNA: B1 RNA
modifications: 2'-F at U8,U16,U21,U28,U30; 2'-OH at G12,G27,G29; all others 2'-OMe; PS between G29 and U30
B6: aptamer ID 3(34) (ssRNA)
RNA: B1 RNA
modifications: 2'-F at U8,G12,U16,U21,G27,U28,G29,U30; all others 2'-OMe; 3' idT
B7: aptamer ID 3(24) (ssRNA)
RNA: B1 RNA
modifications: 2'-F at U8,U16,U21,U28,U30; G27 DNA (2'-H); 2'-OH at G12,G29; all others 2'-OMe
B8: aptamer ID 3(26) (ssRNA)
RNA: B1 RNA
modifications: 2'-F at U8,U16,U21,G27,U28,U30; 2'-OH at G12,G29; all others 2'-OMe
B9: aptamer ID 3(20) (ssRNA)
RNA: B1 RNA
modifications: 2'-F at U8,U16,U21,U28,U30; 2'-OH at G12,G27,G29; all others 2'-OMe; 5' idT
B10: aptamer ID 3(38) (ssRNA)
RNA: B1 RNA
modifications: 2'-F at U8,U16,U21,U28,U30; 2'-OH at G12,G27,G29; all others 2'-OMe; 5' PEG 10K (ME-100TS)-C6; 3' idT
B11: aptamer ID 3(30) (ssRNA)
RNA: B1 RNA
modifications: 2'-F at U8,U16,U21,U28,U30; 2'-OH at G12,G27,G29; all others 2'-OMe; PS between A26 and G27
B12: aptamer ID 3(28) (ssRNA)
RNA: B1 RNA
modifications: 2'-F at U8,U16,U21,U28,U30; 2'-OH at G12,G27,G29; all others 2'-OMe; PS between G11 and G12
B13: aptamer ID 3(5) (ssRNA)
RNA: B1 RNA
modifications: all C and U 2'-F; 2'-OMe at A9; other purines 2'-OH
B14: aptamer ID 3(32) (ssRNA)
RNA: B1 RNA
modifications: 2'-F at U8,U16,U21,U28,U30; 2'-OH at G12,G27,G29; all others 2'-OMe; PS between U28 and G29
B15: aptamer ID 3(15) (ssRNA)
RNA: B1 RNA
modifications: 2'-OMe at G1,G2,G3,A4,A9,G10,G11,A14,A17,A18,G20,A23,C24,C25,A26; other C and U 2'-F; other purines 2'-OH
B16: aptamer ID 3(4) (ssRNA)
RNA: B1 RNA
modifications: all C and U 2'-F; 2'-OMe at G10; other purines 2'-OH
B17: aptamer ID 3(6) (ssRNA)
RNA: B1 RNA
modifications: all C and U 2'-F; 2'-OMe at A23; other purines 2'-OH
B18: aptamer ID 3(17) (ssRNA)
RNA: B1 RNA
modifications: 2'-OMe at G1,G2,G3,A4,U5,A9,G10,G11,A14,A17,A18,G20,A23,A26; other C and U 2'-F; other purines 2'-OH
B19: aptamer ID 3(37) (ssRNA)
RNA: B1 RNA
modifications: 2'-F at U8,U16,U21,U28,U30; 2'-OH at G12,G27,G29; all others 2'-OMe; 5' PEG 40K (Y-NHS-40K)-ssH; 3' idT

T1 sequence (P09038 135-288, one chain of several): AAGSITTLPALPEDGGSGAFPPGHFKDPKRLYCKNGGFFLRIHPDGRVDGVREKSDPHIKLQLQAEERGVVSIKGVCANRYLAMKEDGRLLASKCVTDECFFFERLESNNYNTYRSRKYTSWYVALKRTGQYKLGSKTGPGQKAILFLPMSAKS

For the first series, the target named is T1, FGF2 (Homo sapiens, UniProt P09038 P09038:135-288). Briefly: inhibition; SPR inhibition of FGF2-FGFR1alpha(IIIc); each 0.1 uM. The note with it: tags: Peprotech. Here is the method:
BIAcore2000 manufactured by BIAcore was used for the measurement. As directed in BIAcore Company's protocol, Protein A (21181, manufactured by PIERCE) was immobilized on a CM5 sensor chip. About 1,000 RU of human FGFR1α (IIIc), R2α (IIIc), R3 (IIIc), R4 (manufactured by R&D Systems) fused with the Fc portion of IgG (manufactured by R&D systems) was each immobilized thereon. As analyte, a mixture of FGF2 (0.1 μM), heparin (0.1 μM) (manufactured by Pfizer) and aptamer (0.15 μM) was flown. Before an inhibitory test, a mixture of FGF2 and heparin was confirmed to bind to 4 kinds of receptors. […] A sensorgram showing that the aptamer shown by aptamer ID 1 inhibits binding of FGF2 and FGFR1α(IIIc), 2α(IIIc), 3(IIIc), 4 is shown in FIG. 2.
In addition, the inhibitory rate against each of the 4 kinds of receptors was determined. The inhibitory rate was determined with the maximum binding amount of the FGF2 and heparin mixture as 0, and the binding amount with an injection buffer alone as 100. The binding amount here means the RU value of the peak top of sensorgram. The inhibitory rate was calculated. […] The inhibitory rate of other aptamers was not more than 50%.
To enhance FGF2-binding activity, stability, drug deliverability and the like, the nucleic acids shown by aptamer IDs 3(1)-3(40), aptamer IDs 4 and 4(1)-4(4), aptamer ID 5 and aptamer ID 6 were chemically synthesized based on the aptamer shown in SEQ ID NO: 3. Here, the aptamer shown by aptamer ID 4 is the aptamer shown by aptamer ID 3(19) wherein one G(M) at the 5′-terminal and one C(M) at the 3′-terminal have been deleted. The aptamer shown by aptamer ID 5 is the aptamer shown by aptamer ID 3(19) wherein one G(M) has been added at the 5′-terminal and one C(M) has been added at the 3′-terminal. The aptamer shown by aptamer ID 6 is the aptamer shown by aptamer ID 3(19) wherein A(M) alone has been added at the 5′-terminal. These nucleic acids were produced by chemical synthesis.
In turn, B1 displayed an activity of 84%.

B2 had an activity of 88%. On the same count and under the same terms, with B3 the figure was 84%; with B4, 89%; with B5, 90%.

As for B6, the activity came out at 91%. The same measure, in the same setting: with B7 the figure was 90%; with B8, 99%; with B9, 96%.

For B10, the activity was determined as 97%. Same read-out and setting: the same measure for B11: 99%; for B12: 91%; for B13: 87%. Still for that read-out and setting: the same measure for B14: 91%; for B15: 86%; for B16: 89%. On the same count and under the same terms, with B17 the figure was 78%; with B18, 88%; with B19, 97%.

A further series concerns the target T1, FGF2. Briefly: cell_activity; HUVEC proliferation, FGF2 0.58 nM. The note with it: tags: Peprotech. As for the experimental part: Human umbilical vein endothelial cells (HUVEC) were seeded in a 96 well flat bottom plate at 5×10³ cells per well, and cultured overnight using a medium EGM-2 Bullet Kit for endothelial cells (CC-3162 manufactured by Lonza) containing 2% fetal bovine serum and growth factors. Thereafter, the medium was discarded, the cells were washed twice with PBS buffer, and a mixture of the aptamer shown by aptamer ID 3(21) (5, 2.5, 1, 0.5 nM) and FGF2 (final concentration 0.5 nM), dissolved in a medium exclusively for endothelial cells containing 2% fetal bovine serum, was added. After 72 hr, viable cell number was examined using Cell Counting Kit-8. For the measurement of absorbance, a microplate reader (450 nm) was used. One sample was measured at n=3. As a positive control, anti-FGF2 antibody Anti-FGF, basic (Ab-3) Mouse mAb (3H3) (manufactured by Calbiochem) were used. With the OD value per well obtained by the addition of FGF2 alone and culture of the cells for 3 days as inhibitory activity 0%, and that of the cell obtained by FGF2 free culture for 3 days as inhibitory activity 100%, the inhibitory activity of the aptamer was calculated from the OD value per well obtained by culturing with the addition of a mixture of FGF2 and the aptamer. As a result, it was shown that the aptamer shown by aptamer ID 3(21) has a high inhibitory activity against FGF2.
By a method similar to the above except that the 96 well flat bottom plate was changed to a collagen-coated one, the activity of various aptamers was evaluated. The concentration of FGF2 added was 0.58 nM. As a negative control RNA, Macugen (registered trade mark) sequence without addition of PEG, and with C6 modification of the 5′-terminal and idT modification of the 3′-terminal was used.
B1: the IC50 (commonly the concentration at which inhibition is half-maximal) worked out at 27 nM. Same read-out and setting: with B2 the figure was 15 nM.

For B4, half-maximal inhibition (IC50) was put at 21 nM. Still for that read-out and setting: with B5 the figure was 4 nM. On the same count and under the same terms, the same measure for B7: 7.3 nM; for B8: 3 nM. Still for that read-out and setting: the same measure for B11: 3.3 nM; for B12: 4 nM. In the case of B14, the IC50 amounted to 4 nM. This counts as single-digit nanomolar.

On to B15, for which half-maximal inhibition (IC50) required 14 nM.
